What was measured:
Assay in all cases: flow cytometry on CHO-K1 transfectants, right sub-column
[1] = biological target: T1, V49A
T1 construct: also called hCD27 V49A
T1 receptor chain: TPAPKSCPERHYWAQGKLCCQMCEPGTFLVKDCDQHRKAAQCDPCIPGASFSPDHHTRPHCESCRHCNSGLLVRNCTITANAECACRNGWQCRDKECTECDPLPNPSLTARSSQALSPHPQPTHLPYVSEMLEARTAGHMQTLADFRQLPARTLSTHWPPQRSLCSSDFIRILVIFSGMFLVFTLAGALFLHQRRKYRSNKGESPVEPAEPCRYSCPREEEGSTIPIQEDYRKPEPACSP
Method: (§1) The hCD27 variants that were tested are listed. Amino acids correspond to the UniProt P26842-1 sequence. Amino acids 1-20 constitute the signal peptide. Binding is expressed as the geometric mean of the FITC signal, relative to antibody binding to hCD27, which was set at 100%.
(§2) The ability of several anti-hCD27 antibodies to bind to a series of hCD27 alanine mutants was determined using CHO-K1 cells, transiently transfected pCI-neo empty vector, pCI-neo.hCD27 and several pCI-neo.CD27Ala mutant constructs.
(§3) Detached cells were transferred to 96 wells round-bottomed well plates at approximately 1.2×10⁵ cells/well. After spinning down the cells, discarding the supernatants and re-suspending the cells in the residual volume, the primary antibodies were added and incubated for 30 minutes at 4° C. Cells were washed three times with DPBS/BSA 1%, followed by centrifugation, discarding of the supernatants and re-suspension in the residual volume. […] After washing once, antibody binding was detected using the HTS plate reader (FACS Canto II) and FlowJo software for data analysis. Debris, dead cells and doublets were excluded from the analysis. Binding was expressed as the geometric mean of the FITC signal, relative to antibody binding to hCD27, which was set at 100%.

[2] = biological target: T2, G16A
T2 construct: also called hCD27 G16A
T2 receptor chain: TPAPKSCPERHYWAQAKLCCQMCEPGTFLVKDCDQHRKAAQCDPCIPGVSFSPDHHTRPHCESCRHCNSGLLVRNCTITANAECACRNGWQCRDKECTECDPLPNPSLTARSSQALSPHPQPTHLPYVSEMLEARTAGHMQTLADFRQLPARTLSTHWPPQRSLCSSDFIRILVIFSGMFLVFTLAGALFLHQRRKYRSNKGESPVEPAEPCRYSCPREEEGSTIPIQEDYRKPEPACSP
Method: as §1, §2, §3

[3] = biological target: T3, S63A
T3 construct: also called hCD27 S63A
T3 receptor chain: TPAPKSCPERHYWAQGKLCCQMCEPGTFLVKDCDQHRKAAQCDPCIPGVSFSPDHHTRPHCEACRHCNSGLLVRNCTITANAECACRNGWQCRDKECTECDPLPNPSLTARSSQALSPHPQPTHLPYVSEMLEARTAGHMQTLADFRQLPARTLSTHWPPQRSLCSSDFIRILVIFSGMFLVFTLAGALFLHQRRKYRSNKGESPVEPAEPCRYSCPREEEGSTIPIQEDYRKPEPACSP
Method: as §1, §2, §3

[4] = biological target: T4, D43A
T4 construct: also called hCD27 D43A
T4 receptor chain: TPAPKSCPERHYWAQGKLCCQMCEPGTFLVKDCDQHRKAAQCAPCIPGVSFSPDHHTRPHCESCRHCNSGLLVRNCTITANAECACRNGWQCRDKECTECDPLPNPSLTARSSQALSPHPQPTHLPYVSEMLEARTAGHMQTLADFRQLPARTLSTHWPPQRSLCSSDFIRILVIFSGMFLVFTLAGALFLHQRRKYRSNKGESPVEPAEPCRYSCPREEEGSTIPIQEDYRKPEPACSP
Method: as §1, §2, §3

[5] = biological target: T5, Q15A
T5 construct: also called hCD27 Q15A
T5 receptor chain: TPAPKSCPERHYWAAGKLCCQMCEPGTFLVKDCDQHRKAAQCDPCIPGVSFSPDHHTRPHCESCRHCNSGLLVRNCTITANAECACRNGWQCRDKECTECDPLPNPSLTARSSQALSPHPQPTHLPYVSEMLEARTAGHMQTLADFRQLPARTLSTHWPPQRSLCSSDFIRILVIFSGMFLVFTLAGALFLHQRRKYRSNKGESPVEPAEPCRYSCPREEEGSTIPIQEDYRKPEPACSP
Method: as §1, §2, §3

[6] = biological target: T6, K17A
T6 construct: also called hCD27 K17A
T6 receptor chain: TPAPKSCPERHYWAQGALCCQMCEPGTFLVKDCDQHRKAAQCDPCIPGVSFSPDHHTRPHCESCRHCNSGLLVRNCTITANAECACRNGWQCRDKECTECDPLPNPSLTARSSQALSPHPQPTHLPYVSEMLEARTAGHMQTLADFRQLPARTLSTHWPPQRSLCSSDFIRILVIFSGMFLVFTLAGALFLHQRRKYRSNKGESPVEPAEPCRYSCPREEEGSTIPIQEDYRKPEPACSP
Method: as §1, §2, §3

[7] = biological target: T7, D32A
T7 construct: also called hCD27 D32A
T7 receptor chain: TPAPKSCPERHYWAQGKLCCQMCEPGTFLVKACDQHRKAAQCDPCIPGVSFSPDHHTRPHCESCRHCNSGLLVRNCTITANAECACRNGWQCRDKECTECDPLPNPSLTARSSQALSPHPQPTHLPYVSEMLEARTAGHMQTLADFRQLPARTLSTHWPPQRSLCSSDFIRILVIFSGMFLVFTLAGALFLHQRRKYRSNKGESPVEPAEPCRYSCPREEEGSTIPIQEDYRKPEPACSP
Method: as §1, §2, §3

[8] = biological target: T8, P44A
T8 construct: also called hCD27 P44A
T8 receptor chain: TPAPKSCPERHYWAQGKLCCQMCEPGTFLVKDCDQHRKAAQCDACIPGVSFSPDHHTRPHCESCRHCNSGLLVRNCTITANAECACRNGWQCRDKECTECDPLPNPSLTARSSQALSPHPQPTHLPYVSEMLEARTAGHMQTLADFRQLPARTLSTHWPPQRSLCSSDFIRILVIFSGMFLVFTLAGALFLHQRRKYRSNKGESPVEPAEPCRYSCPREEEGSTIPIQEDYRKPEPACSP
Method: as §1, §2, §3

[9] = biological target: T9, N88A
T9 construct: also called hCD27 N88A
T9 receptor chain: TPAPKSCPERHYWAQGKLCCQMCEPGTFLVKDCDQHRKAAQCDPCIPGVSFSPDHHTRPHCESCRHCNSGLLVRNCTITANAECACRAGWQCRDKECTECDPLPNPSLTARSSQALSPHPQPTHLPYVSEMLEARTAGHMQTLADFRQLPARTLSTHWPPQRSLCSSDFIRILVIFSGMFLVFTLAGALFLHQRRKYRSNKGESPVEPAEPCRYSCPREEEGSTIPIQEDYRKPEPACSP
Method: as §1, §2, §3

[10] = biological target: T10, K31A
T10 construct: also called hCD27 K31A
T10 receptor chain: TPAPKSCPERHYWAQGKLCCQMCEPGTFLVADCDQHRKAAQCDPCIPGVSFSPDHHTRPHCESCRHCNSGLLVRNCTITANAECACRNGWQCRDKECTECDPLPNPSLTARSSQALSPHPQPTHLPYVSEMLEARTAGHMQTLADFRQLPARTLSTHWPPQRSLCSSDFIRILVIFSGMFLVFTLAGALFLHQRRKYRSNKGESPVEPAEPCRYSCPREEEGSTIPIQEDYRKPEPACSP
Method: as §1, §2, §3

- binding, WT hCD27 = 100 (GM FITC) [1]: 99.8%
- binding, WT hCD27 = 100 (GM FITC) [2]: 108%
- binding, WT hCD27 = 100 (GM FITC) [3]: 141%
- binding, WT hCD27 = 100 (GM FITC) [4]: 96.2%
- binding, WT hCD27 = 100 (GM FITC) [5]: 136%
- binding, WT hCD27 = 100 (GM FITC) [6]: 126%
- binding, WT hCD27 = 100 (GM FITC) [7]: 62.1%
- binding, WT hCD27 = 100 (GM FITC) [8]: 91%
- binding, WT hCD27 = 100 (GM FITC) [9]: 124%
- binding, WT hCD27 = 100 (GM FITC) [10]: 134%
B1: hCD27.131A (mouse parental 131A) (antibody, mouse IgG1, V domains shown)
VH: QIQLVQSGPELKKPGETVKISCKASGYTFTNYGMNWVKQAPGKGLKWMGWINTNTGEPTYAEEFKGRFAFSLETSATTAYLQINNLKNEDTATYFCAREGDAMDYWGQGTSVTVSS
VL: QIVLTQSPAIMSASPGEKVTMTCSASSSVSYMHWYQQKSGTSPKRWIYDTSKLASGVPARFSGSGSGTSYSLTISSMEAEDAATYYCQQWNSYPFTFGSGTKLEIK
notes: Mouse IgG1 antibody; also called mouse hCD27.131A

— US20180086841A1 (Merck Sharp & Dohme, published 2018)
